Assay: soluble on expression in E. coli; label from the status in PepcDB or PDB records

Sequence | soluble on expression in E. coli
MSLKKEYLQCQSLVDVVRLRALHSPNKKSCTFLNKELEETMTYEQLDQHAKAIAATLQAEGAKPGDRVLLLFAPGLPLIQAFLGCLYAGCIAVPIYPPAQEKLLDKAQRIVTNSKPVIVLMIADHIKKFTADELNTNPKFLKIPAIALESIELNRSSSWQPTSIKSNDIAFLQYTSGSTMHPKGVMVSHHNLLDNLNKIFTSFHMNDETIIFSWLPPHHDMGLIGCILTPIYGGIQAIMMSPFSFLQNPLSWLKHITKYKATISGSPNFAYDYCVKRIREEKKEGLDLSSWVTAFNGAEPVREETMEHFYQAFKEFGFRKEAFYPCYGLAEATLLVTGGTPGSSYKTLTLAKEQFQDHRVHFADDNSPGSYKLVSSGNPIQEVKIIDPDTLIPCDFDQVGEIWVQSNSVAKGYWNQPEETRHAFAGKIKDDERSAIYLRTGDLGFLHENELYVTGRIKDLIIIYGKNHYPQDIEFSLMHSPLHHVLGKCAAFVIQEEHEYKLTVMCEVKNRFMDDVAQDNLFNEIFELVYENHQLEVHTIVLIPLKAMPHTTSGKIRRNFCRKHLLDKTLPIVATWQLNKIEEGHHHHHH | soluble
MSLKKILVQWKNGPSQIGRMYPLPVFDEHDIVQLCSEVKDILRIQPAVIQRKPGVIIVGDLHGNFLNFLQIFAIHGLPPNQNYIFLGNYINYGEFSLEVVIYLFSLYYLFPSNISLLRGSTEFYPSKGPRSLSSNIDTTYGPNSILKSVFLETFTYLPIACLIGNSVLCSRSSLVSRYSNLQEIFHETLPIPCVVDQSHLFLSGLANVIPSEEVLEEFLATNNLNFLIFGGKNAGDGVENMLDDRCYALASDAHMGYCGIINLVGNQPPFAIIFTPDSDLLRENAQMLREGHHHHHH | not soluble
MSLKKTILCFGEALIDMLAQPLVKKGMPRAFLQCAGGAPANVAVAVARLGGAVQFVGMLGSDMFGDFLFDSFAEAGVVTDGIVRTSTAKTALAFVALDAHGERSFSFYRPPAADLLFRVEHFQDASFSDALIFHACSNSMTDADIAEVTFEGMRRAQAAGAIVSFDLNFRPMLWPNGENPASRLWKGLSLADVVKLSSEELDYLANTLAADANAVIQQLWQGRAQLLLVTDAAGPVHWYTRTAGGEVPTFRVQVQDSNAAGDAFVGGMLYTFAQQFDDAAALIDFCHDPESIVSTLRFAAAVGALAVTRQGAFTAMPMLSEVLSLIQEQSEGHHHHHH | soluble
MSLKLKIADIAMRTGLSSSTVSRVLAGKANTSYRAREKVLACARELGVMDGMASGRMLLNNLVIFAPQRAFDERTDIFYFRVIQSISKALSHYEVRLRYCALDEFDSTPSKFLARMNEAETQAAILLGIDDPHIHDLAADFSKPCVMINCHDRRMRLPTVAPDHKNIGAFASHFLFEMGHRRVMNIMCLRRYTMELRLAGIKEAWERQNQNFKDDRDLLTINSFSAKEAEEKVGAWLDMTEKSMLPTAFLASGDFIAAGIINALKKRNIRVPQDVSVMSIDGFNLAAIEDVPLTAVHVPRDELGTEAVHMLQQRLVRPDATVGALLLYGKLVIRESVREGHHHHHH | not soluble
MSLKLLAIDSATQAATCAVMDDDKLLGEITFNYKKQHSVILMSMIDDMLNTVNLKVEDLDGFVVSKGPGSFTGLRIGMSIVKGLSEGSKKPFVSVSSLDALAYNMAYTPGIICPVLDALRDNVYTALYTFEGNSLKRLTEYDAIHITELIELLKGYDSQVTFIGDAVYKFRNFFDENVENVQFAPAHLNLVRSSSLCELGMELLKSGVKDDLITSAPIYIRKSQAEREYEKRTGMSIDDEGHHHHHH | soluble
MSLKLVKLETFSTEFVCFVRATAEDGAQGWGQVAPYYADITAQVLHRQVAPYALGMACEDIDAMLDIVRDREHKFPGSYLRRAMGGVDTALWDMHGRRAGKPVCVLIGGTPGPVRAYGSSMKRDITPRDEAARLVRLRDEQGFDAFKFRIGAEVGRDRDEWPGRTEEIVPTMRRAMGDDVALLVDANSCYSPARAIEVGRMLEQHGISHYEEPCPYWEFAQTKEVTDTLDLDITGGEQDCLMERWQTMIADRVVDVLQPDICYLGGLSRTLRVARMAEAAGMPITPHAANLSMVTLFTMHLLRAIPNAGKYLEFSIEGLDYYPWQQGLFTSDPYRIEEGHATVTDAPGWGVDVNPDWLARSEGHHHHHH | not soluble
MSLKNFVVKDIGIPKYIENMVGKGDFYLLNKRKLNSHKGQNGKVLIIGGSKEYHGAPVFSGLAASKFADIVTVASVSNVIGTVRNYPELMPYELNGEYIGQKNTDELLKLSKNYDCTVLGSGLSLNSSTKEFVNSYLNETNGKVVIDADAIKLIDYGNFEFKNNFIFTPHKKEFEYMKDYVKKYAKNQGFNSTVVLKGSIDIVFDPDNIKMNITGNQGMTAGGTGDILCGIIGAICACNDAFPSACCGTYINGYCGDLLEKEYGYYYNSTDIIKILPKALKELLYEGHHHHHH | soluble
MSLKPRIAIVGLGLIGGSLARRLVNAGCEVTAWNHNDRPYATAEADGIICKPTLAALAETKPNVLVLCNPLKAMPEILGALKPLIDTETTTLTDVGSVKGMVRDQVKAIGLDGCYVGAHPMAGNELSGWEASDPTLYDDALWAITVDEHTEYRRFRAVADMIVNRCGNRLIVLDDATHDRCAALISHMPHVIATAMINELVANPNRNIAAALAAGSWRDMTRVALTDPNRTRAMVEEDAANVETLLRNMANRLTLVANVLHDMADTGVRPTEGDVKQMDRFFAQGQPFRDYKAASRQPEYAEHCATVELSIPENDWQRTLLESARRGEHIVRFDGERTAIAQARSVEGHHHHHH | soluble
MSLKPRVAVIGSGSIGLLLYAYLKLANWPALLVTNRPEQADHLNKEGLTFVAKSGEHQPISVTATPLSSFSAEEAEVGFITVKSFAVKALLPQLQRKKWDGLVFFQNGMTHLEILRQIPARAICCGIVEIGAKRESDVRVQHTGDGAIWIGDMVGDSKNFDPMWACLHNAGLKAQKVTNWQDKMERKLIANAAINPLTGLFRVKNGALIENQLFSLLLKELVKEACVTLGREREVDEHLAYTRAICDKTANNLSSMYMDLTHHRRTEIESITGYLIKEAAKKGIEIPNTSFVYHAVMGMDEEGRKVREGHHHHHH | soluble
MSLKQEKERILKLVEEGKLTAQEALTLIEKLDSDYKEKEEKITALSVHVHDEEEPFTTAKKESGKPSLGAKLFDWIDSAVKKVKEVDLDLNFGHAYDVQHIFQFKDTDFSSVELQIANGSVNIVPWEDDDIRAECQAKVYRADSQDAARHAFLQHIECEIKGNKFFIRTEKKTMKTNVTLYIPQKEYDKIRVKLFNGPVRGEHLHVKEFSAKTTNGVLSFSYLTAEKAIAETANGQIKLASHSCGTIEAETINGLIDLRGKSESIDVQSFNGNIAINVTESDCRSIYAKTTTGNVELAIPDDLAVKAELKSNLGTLSHELMDVEMLKEKNDTIQKEMMFTSNQAHDQNITVFSESLTGAIKLKYSQREGGSHHHHHH | soluble
MSLKQFKSIINTSQDFEKRIEKIKKEVINDPDVKQFLEAHRAELTNAMIDEDLNVLQEYKDQQKHYDGHKFADCPNFVKGHVPELYVDNNRIKIRYLQCPCKIKYDEERFEAELITSHHMQRDTLNAKLKDIYMNHRDRLDVAMAADDICTAITNGEQVKGLYLYGPFGTGKSFILGAIANQLKSKKVRSTIIYLPEFIRTLKGGFKDGSFEKKLHRVREANILMLDDIGAEEVTPWVRDEVIGPLLHYRMVHELPTFFSSNFDYSELEHHLAMTRDGEEKTKAARIIERVKSLSTPYFLSGENFRNNEGHHHHHH | soluble
MSLKQKSVPMRHGTIYLYGLHSVHAALKNPKRVFEHLYITPNALKRLNIPESDLPCPITLCLPKQLDSFVGNDAVHQGIVLETEPLKPCQLSELTNTDLVIVMDQITDPHNVGAIMRSAVAFKAEALITTYRHSPQESGVLAKAASGALEMIHYITVQNLAETLQELHKAGFISFGLDSEGNHPLETTLTGEKIALVLGAEGKGLRKKTRENVCALTRLDMPGNIKSLNVSNAATIALYAAHKYLRGEGHHHHHH | soluble
MSLKQYKILLIVADGLGDRPVSKLNGLTPLEAANKPAITDLLKNSMIGLMDPISPGIIPGSDTSHLSIFGLDPHVYYRGRGAFEALGAGATLSHGDVAFRGNFATVNNDLVVVDRRAGRKLEEGEQLVKELNEKIKEINDVKIKFYKGTEHRIAVVLSGKGISDKVSDTDPHHEGLKVLESKPLEDSNEAIRTAEIINILTRKVFDVLNSSEINKRRIEQGEKPANIVLLRGAAHYVKLPPFSSYTKLKAAAVSATALIKGICRELGMNVITPSGATGGIDTNYNAKAKAAIELLKENDFVFLHIKATDAASHDGLVEEKVKAIERIDRVIGAIIDNIGRDNLILMFTGDHVTPVEIKEHTGDPVPVLLYVPYPIINDNVGDFNEKEARKGSLRIRGLDVTNILLNYSNRAEKYGSEGHHHHHH | soluble
MSLKRIAIILLTLTSILFVQHVPEGLAKASNELSLEEKYEQRLTLYEKMEAITNVPWYYLAAVDTYERGLRRAQKDRPAEEGLIAIYFSPQQWVGPLNPDLEDTNPLSISMFNGVGLDGNGDGVADRNNDEDVLYTFARYLESYGFKEEDFRIALWEYYQREQSVNIIYGHANVYKTFKTLDLDDHTFPLPLHHNYSYRSTWGDRRGWGGRRIHEGTDIFANYNVPVMATAYGIVEIKGWNKYGGWRIGVRDLDNVYHYYAHLSGFEKGVEKGTVVAPGDVIGYVGSSGYGKPGTQGKFPPHLHYGMYRDNGYTEWSFDPYPSLKSWERKAYQERKKKKEGHHHHHH | soluble
MSLKRRQTNIIGVYLADYGGSFYGELLEGIKKGLALFDYEMIVCSGKKSHLFIPEKMVDGAIILDWTFPTKEIEKFAERGHSIVVLDRTTEHRNIRQVLLDNRGGATQAIEQFVNVGSKKVLLLSGPEKGYDSQERLAVSTRELTRFGIPYEIIQGDFTEPSGYAAAKKILSQPQTEPVDVFAFNDEMAIGVYKYVAETNYQMGKDIRIIGFDNSELGAFVQPRLATIAYSKHRWGMVAAEKIIHLMRGEAAESEHIYTRFIEGESFPSEGHHHHHH | soluble
MSLKRSEFPENELWDLTALYKDRQDFLLAIEKALEDIKVFKKNYEGKLNCVEDFTSALMEIEHIYIQMSHIDTYAFMPQTTDFSNEEFAQISQAGSDFATKANVLLSFFNTALANADIKILDSLENNPHFKATIRQAKIQKQHLLSPEVEKALTNLNEVLNTPYDIYTKMRAGDFDMEDFEVDGKTYKNSFVTYENYFQNHENAEIREKSFRSFSKGLRKHQNAAAAAYLAKVKSEKLIADMRGYDSVFDYLLSEQEVDRSMFDRQIDLIMDEFGPVAQRFLKHIADVNGIEKMTFADWKLDIDNELNPEVSINDAYDLVMKSVAPLGKEYSQEVERYQKERWVDFAANANKDSGGYAADPYKVHPYVLMSWTGRMSDVYTLIHEIGHSGQFIFSDNHQSFFNTHMSTYYVEAPSTFNELLLSDYLENQFDTARQKRFALAHRLTDTYFHNFITHLLEAAFQRKVYTLIEEGGTFGAEQLNAIMKEVLTQFWGDAIEIDDDAALTWMRQAHYYMGLYSYTYSAGLVISTAGYLNLKNNPNGAKEWLAFLKSGGSRTPLETALLISADISTDKPLRDTINFLSNTVDQIINYSNLIEQEGHHHHHH | soluble
MSLKSALRLYNRASFKASHKVIEEYSTSFSLSTWLLSPRIRNDIRNLYAVVRIADEIVDGTAHAAGCSTAKIEEILDAYEIAVLAAPQQRFNTDLVLQAYGETARRCDFEQEHVIAFFASMRKDLKANTHDPDSFTTYVYGSAEVIGLLCLSVFNQGRTISKKRLEIMQNGARSLGAAFQKINFLRDLAEDQQNLGRFYFPKTSQGTLTKEQKEDLIADIRQDLAIAHDAFPEIPVQARIGVISAYLLFQKLTDRIEATPTADLLRERIRVPLHIKLSTLARATMKGLSMSIYRKNSEGHHHHHH | soluble

Reference: the DeepSol protein solubility set
